Reference: patent publication US9844546B2, “Antibody against human HIF hydroxylase” (OXFORD UNIVERSITY INNOVATION LIMITED, priority 2001, dated 2017)
“Also recorded” adds a separate entry of the source.

Target: T1, HIF-1α/pVHL interaction (Homo sapiens, UniProt P40337)
T1 construct: made in house; host or cells: TNT rabbit reticulocyte lysate (Promega), in vitro transcription/translation
Experiment: Polypeptide blocking assay of HIF-1α and pVHL.HA IVTT mixture, anti-HA immunoprecipitation
Type: binding
Protocol: Further studies were performed using synthetic polypeptides as inhibitors of the HIF-1α/pVHL interaction (23). […] Results for a series of polypeptides derived from this domain are summarized in FIG. 1B and implicate a similar minimal interaction domain. […] This polypeptide comprises HIF-1α polypeptide residues 556 to 574 and its ability to block binding following exposure to a variety of direct oxidation conditions was assessed.
We synthesized a polypeptide (HIF-1α residues 556-574), containing a trans-4-hydroxy-S-proline residue at position 564 (19:Pro564Hyp), since the trans-4-hydroxylation is the commonest enzymatic proline oxidation (25). A polypeptide blocking assay was carried out using the 19:Pro564Hyp modified polypeptide and, as a control, the unmodified polypeptide without the trans-4-hydroxylation (19:WT). The 19:WT polypeptide was either incubated with cell extract before the binding assay or was untreated. The 19:Pro564Hyp polypeptide was added to a mixture of HIF-1α and pVHL-HA IVTTs at a concentration of 1, 0.25, 0.05 or 0.01 μM and the cell extract treated or untreated 19:WT polypeptide at a concentration of 0.5 μM. Interaction of HIF-1α with pVHL was then assayed by anti-HA immunoprecipitation. […] A pVHL capture assay was then carried out using biotinylated synthetic polypeptides. The same polypeptides, 19:Pro564Hyp and 19:WT were assessed for the ability to capture wild type or mutant (Pro86His) pVHL. […] In both cases capture was specific for wild type, as opposed to mutant, pVHL.
• 1. G. L. Semenza, Genes Dev 14, 1983-91. (2000). • 2. N. V. Iyer, et al., Genes Dev. 12, 149-162 (1997). • 3. E. Maltepe, J. V. Schmidt, D. Baunoch, C. A. Bradfield, M. C. Simon, Nature 386, 403-407 (1997). • 4. G. L. Wang, B.-H. Jiang, E. A. Rue, G. L. Semenza, Proc. Natl. Acad. Sci. USA 92, 5510-5514 (1995). • 5. S. Salceda, J. Caro, J. Biol. Chem. 272, 22642-22647 (1997). • 6. L. E. Huang, J. Gu, M. Schau, H. F. Bunn, Proc. Natl. Acad. Sci. USA 95, 7987-7992 (1998). • 7. M. S. Wiesener, et al., Blood 92, 2260-2268 (1998). • 8. P. H. Maxwell, et al., Nature 399, 271-275 (1999). • 9. K. Iwai, et al., Proc. Natl. Acad. Sci. USA 96, 12436-12441 (1999). • 10. J. Lisztwan, G. Imbert, C. Wirbelauer, M. Gstaiger, W. Krek, Genes Dev 13, 1822-33 (1999). • 11. M. E. Cockman, et al., J Biol Chem (2000). • 12. M. Ohh, et al., Nat Cell Biol 2, 423-7. (2000). • 13. T. Kamura, et al., Proc Natl Acad Sci USA 97, 10430-5. (2000). • 14. K. Tanimoto, Y. Makino, T. Pereira, L. Poellinger, Embo J 19, 4298-309. (2000). • 15. M. A. Goldberg, S. P. Dunning, H. F. Bunn, Science 242, 1412-1415 (1988). • 16. G. L. Wang, G. L. Semenza, Blood 82, 3610-3615 (1993). • 17. G. L. Semenza, Cell 98, 281-284 (1999). • 18. Hypoxia (<0.1% oxygen) was obtained in a workstation with O2, CO2 and temperature control (Ruskinn Technologies, Leeds, UK). For hypoxic harvest, buffers were preincubated in the chamber overnight. RCC4-VHL.HA, labelling conditions and co-immunoprecipitation assays have been described previously (11); in the current study 12.5 μM MG132 was used for proteasomal inhibition. For standard harvest, the cells were removed from the chamber after hypoxic exposure, prior to cell lysis. Co-immunoprecipitation assays on all lysates were performed at 4° C. under ambient oxygen conditions. […] When programming in hypoxia, reaction mix was preincubated in the workstation for 10 minutes before addition of the DNA template. […]

T1 sequence (P40337 whole entry): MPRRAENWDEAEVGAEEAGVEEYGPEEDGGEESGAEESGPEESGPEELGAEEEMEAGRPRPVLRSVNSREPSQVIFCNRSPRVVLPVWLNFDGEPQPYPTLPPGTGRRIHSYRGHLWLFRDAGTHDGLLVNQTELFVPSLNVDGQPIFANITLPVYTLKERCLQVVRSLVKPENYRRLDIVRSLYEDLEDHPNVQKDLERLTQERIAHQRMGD

| Substance | blocking of HIF-1α/pVHL interaction by polypeptide after exposure to cell extract (cell extract supplemented with Fe(II)) | blocking of HIF-1α/pVHL interaction by polypeptide not exposed to cell extract (untreated polypeptide) |
| --- | --- | --- |
| 19:WT: polypeptide comprising HIF-1α residues 556 to 574 | blocking activity |  |
| 19:Pro564Hyp: polypeptide (HIF-1α residues 556-574) containing a trans-4-hydroxy-S-proline residue at position 564 |  | highly effective at inhibiting the HIF-1α/pVHL interaction; also recorded: blocked the HIF-1α/pVHL interaction without the need for exposure to cell extract |
